Reference: patent US20210317201A1 (Boehringer Ingelheim, published 2021)
“And” between values parts separate entries of the source, which are not always exact repeats. Identical values can stand only once.

T1: Human IL-23 no linker (human, UniProt P29460 23-328)
T1 construct: also called recombinant IL-23 without linker
T1 sequence 1: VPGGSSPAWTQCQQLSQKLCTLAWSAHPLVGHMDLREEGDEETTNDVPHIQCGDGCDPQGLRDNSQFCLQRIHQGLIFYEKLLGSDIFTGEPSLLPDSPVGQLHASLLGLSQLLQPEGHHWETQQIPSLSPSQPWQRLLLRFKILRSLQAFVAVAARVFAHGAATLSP
T1 sequence 2: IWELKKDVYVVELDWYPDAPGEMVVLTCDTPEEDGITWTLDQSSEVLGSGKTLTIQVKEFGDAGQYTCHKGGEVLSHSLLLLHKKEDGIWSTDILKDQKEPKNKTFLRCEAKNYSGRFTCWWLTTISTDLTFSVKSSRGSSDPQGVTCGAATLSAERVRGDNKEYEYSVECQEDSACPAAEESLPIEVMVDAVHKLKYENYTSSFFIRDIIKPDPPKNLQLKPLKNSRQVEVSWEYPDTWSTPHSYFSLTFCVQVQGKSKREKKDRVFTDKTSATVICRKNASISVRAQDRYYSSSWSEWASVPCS

T2: recombinant human IL-23 (human, UniProt P29460 23-328)
T2 sequence 1: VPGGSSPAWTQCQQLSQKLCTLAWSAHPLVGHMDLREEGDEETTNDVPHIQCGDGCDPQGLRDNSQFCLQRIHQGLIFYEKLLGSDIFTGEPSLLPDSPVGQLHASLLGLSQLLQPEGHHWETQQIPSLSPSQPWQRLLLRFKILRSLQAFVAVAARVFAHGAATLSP
T2 sequence 2: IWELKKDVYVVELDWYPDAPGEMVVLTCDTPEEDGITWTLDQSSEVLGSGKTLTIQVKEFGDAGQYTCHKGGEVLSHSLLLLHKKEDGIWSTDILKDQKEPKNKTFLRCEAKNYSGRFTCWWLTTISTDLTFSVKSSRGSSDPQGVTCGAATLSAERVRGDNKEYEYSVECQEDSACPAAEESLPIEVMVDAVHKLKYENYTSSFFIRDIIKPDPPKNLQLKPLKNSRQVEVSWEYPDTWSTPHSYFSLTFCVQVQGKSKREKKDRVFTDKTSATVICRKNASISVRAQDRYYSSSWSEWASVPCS

T3: natural human IL-23 from activated THP-1 cells (human, UniProt P29460 23-328)
T3 sequence 1: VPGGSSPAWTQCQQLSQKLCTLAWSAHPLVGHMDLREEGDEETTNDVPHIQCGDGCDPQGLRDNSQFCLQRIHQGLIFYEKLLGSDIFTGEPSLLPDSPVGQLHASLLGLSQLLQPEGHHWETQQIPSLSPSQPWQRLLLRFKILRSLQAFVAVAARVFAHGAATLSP
T3 sequence 2: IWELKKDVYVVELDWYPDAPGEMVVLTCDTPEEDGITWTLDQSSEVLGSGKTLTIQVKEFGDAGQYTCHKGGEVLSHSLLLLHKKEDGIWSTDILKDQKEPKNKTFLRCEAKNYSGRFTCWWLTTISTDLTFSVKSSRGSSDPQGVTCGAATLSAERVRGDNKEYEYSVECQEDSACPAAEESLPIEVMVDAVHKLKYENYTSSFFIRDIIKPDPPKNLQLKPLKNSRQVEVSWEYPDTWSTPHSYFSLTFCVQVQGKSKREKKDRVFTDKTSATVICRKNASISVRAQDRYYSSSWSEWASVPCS

T4: human IL-12 (human, UniProt P29459 23-219; P29460 23-328)
T4 sequence (looked up) 1: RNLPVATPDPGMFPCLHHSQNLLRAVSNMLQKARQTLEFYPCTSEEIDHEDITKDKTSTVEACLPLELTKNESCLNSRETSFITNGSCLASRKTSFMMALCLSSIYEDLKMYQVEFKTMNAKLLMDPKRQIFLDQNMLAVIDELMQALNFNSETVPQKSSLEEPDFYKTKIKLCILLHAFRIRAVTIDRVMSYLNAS
T4 sequence (looked up) 2: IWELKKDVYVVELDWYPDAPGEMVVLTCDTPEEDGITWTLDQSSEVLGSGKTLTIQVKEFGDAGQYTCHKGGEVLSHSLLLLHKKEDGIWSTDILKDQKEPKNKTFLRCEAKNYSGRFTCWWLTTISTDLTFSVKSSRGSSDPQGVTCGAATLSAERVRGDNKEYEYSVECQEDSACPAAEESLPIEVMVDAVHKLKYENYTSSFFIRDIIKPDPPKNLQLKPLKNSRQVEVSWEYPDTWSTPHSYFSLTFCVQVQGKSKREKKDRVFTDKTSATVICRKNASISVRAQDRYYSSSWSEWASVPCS


What was measured:
Human IL-23 no linker = target: T1, Human IL-23 no linker; assay: SPR, ProteOn XPR36, global 1:1 fit
Procedure: B) Affinities were measured for humanized antibodies derived from mouse antibody 6B8.

recombinant human IL-23 [1] = target: T2, recombinant human IL-23; assay: cell-based or functional assay
[2] = target: T3, natural human IL-23 from activated …; assay: cell-based or functional assay
recombinant human IL-23 [3] = target: T2, recombinant human IL-23; assay: BLI, Fortebio Octet; hybridoma-derived antibody
Procedure: Kinetics and binding affinities were measured using the Fortebio OCTET® (Fortebio, Menlo Park, Calif.) using material generated from hybridoma following single column purification.

cynomologous IL-23 = target: T5, cynomologous IL-23 (cynomolgus monkey); assay: SPR, ProteOn XPR36, global 1:1 fit
T5 construct: also called cynomolgus IL-23; cynomolgus monkey IL-23

human IL-12 = target: T4, human IL-12; assay: cell-based or functional assay
recombinant human IL-23 [4] = target: T2, recombinant human IL-23; assay: cell-based or functional assay; remark: listed apart in the source

| Binder | Kd (Human IL-23 no linker) [nM] | koff (Human IL-23 no linker) [s⁻¹] | kon (Human IL-23 no linker) [M⁻¹ s⁻¹] | IC50, IL-23 stimulated IL-17 production from mouse splenocytes (recombinant human IL-23 [1]) | IC50, IL-23 stimulated IL-17 production from mouse splenocytes [2] | Kd (recombinant human IL-23 [3]) [nM] | koff (recombinant human IL-23 [3]) [s⁻¹] | kon (recombinant human IL-23 [3]) [M⁻¹ s⁻¹] | Kd (cynomologous IL-23) [nM] | Average pg/ml IFN-γ +/- Standard Deviation, human PHA-derived T cell blasts with 1 ng/ml IL-12 (no antibody: 532 +/- 51; unstimulated: 87 +/- 7) (human IL-12) [pg/ml IFN-γ] | koff (cynomologous IL-23) [s⁻¹] | kon (cynomologous IL-23) [M⁻¹ s⁻¹] | IC50, IL-23 induced STAT3 phosphorylation in human DB cells (phospho-STAT3 ELISA) (recombinant human IL-23 [4]) |
| --- | --- | --- | --- | --- | --- | --- | --- | --- | --- | --- | --- | --- | --- |
| antibody C1273 (disclosed in WO 2007/005955) (antibody, V domains shown) VH: DVNLVESGGGLVKPGGSLKLSCAASGFTFSSYTMSWVRQTPEKRLEWVATISSGGTYTYYPDSVKGRFTISRDNAKNTLYLQMSSLKSEDTAMFYCTRDNHAYDRGPFFDYWGQGATLTVSS VL: DIVMSQSPSSLVVSVGEKVTMSCKSSQNLFYRSNQKNHLAWYQQKPGQSPTLLIYWTSTRESGVPDRFTGSGSGTDFTLTISRVKAEDLAVYYCQQYYSYPPTFGGGTKLEIK | 0.0158 | 5.75e-06 | 360000 | – | – | – | – | – | – | – | – | – | – |
| 34G3 (antibody, V domains shown, Mouse monoclonal antibody from hybridoma; also called 34G3Vk; 34G3VH) VH: EFQLQQSGPELVKPGASVKISCKASGYSFTDYNMNWVKQSKGKSLEWIGVIIPNYGFTSYNQNFKGKATLTVDQSSSTAHMQLNSVTSEDSAVYYCVRDGGILLWYLDVWGTGTTVTVSS VL: DVVMTQTPLSLPVSLGDQASISCRSSQSLVHSNGNTYLHWYLQKPGQSPKLLIYKVSNRFSGVPDRFSGSGSGTDFTLKISRVEAEDLGVYFCSQSTHVPYTFGGGTKLEIN | – | – | – | 0.336 nM | 0.027 nM and 0.025 nM | 0.0328 | 3.1e-05 | 918000 | – | – | – | – | – |
| 9D12 (antibody, V domains shown, Mouse monoclonal antibody from hybridoma; also called 9D12-Vk; 9D12VH) VH: QVQLKESGPVLVAPSQSLSITCTVSGFSLNNFAISWVRQPPGKGLEWLGAIWTGGGTNYNSALKSRLSISKDNSKSQVFLKMNSLQTDDTARYYCVRKDYSYGGAMDYWGQGTSVTVSS VL: DIALTQSPASLAVSLGQRATISCRASETINFYGTSFMHWYQQKPGQSPKLLIYRASNLESGIPARFSGSGSRTDFTLTINPVEADDVATYYCQQTNEDPYTFGGGTKLEIK | – | – | – | 0.059 nM | 0.281 nM and 0.138 nM | < 0.001 | < 1e-06 | – | – | – | – | – | – |
| 34D9 (antibody, V domains shown, Mouse monoclonal antibody from hybridoma; also called 34D9Vk; 34D9VH7) VH: EVQLQQSGPELVKPGASVKIPCKASGYTFTDYNMDWVKKSHGKSLEWIGDINPHNGGTIYNQKFKGKATLTVDKSSSTAHMELRSLTSEDTAVYYCARNYYGSSYGWYFDVWGTGTTVTVSS VL: DIMMTQSHKFMSTSVGDRVSITCKASQDVGNAVVWYQQKPGQSPKLLIYWASTRHIGVPDRFTGSGSGTDFTLTITNVQSEDLADYFCQQYSSYLTFGAGTKLELK | – | – | – | 0.51 nM | 0.456 nM | 0.544 | 1.87e-06 | 3440 | – | – | – | – | – |
| Antibody A (antibody, human IgG1, kappa, L234A L235A, V domains shown, Humanized 6B8, human IgG1-KO (L234A/L235A) / kappa; also called 6B8-IgG1KO-2 with IgK-66; 6B8CVH-02 / 6B8CVK-66) VH: QVQLVQSGAEVKKPGSSVKVSCKASGYTFTDQTIHWMRQAPGQGLEWIGYIYPRDDSPKYNENFKGKVTITADKSTSTAYMELSSLRSEDTAVYYCAIPDRSGYAWFIYWGQGTLVTVSS VL: DIQMTQSPSSLSASVGDRVTITCKASRDVAIAVAWYQQKPGKVPKLLIYWASTRHTGVPSRFSGSGSRTDFTLTISSLQPEDVADYFCHQYSSYPFTFGSGTKLEIKR | < 0.001 | – | – | 0.005 nM and 0.015 nM | 0.001 nM | – | – | – | < 0.001 | 497 | – | – | – |
| Antibody B (antibody, human IgG1, kappa, L234A L235A, V domains shown, Humanized 6B8, human IgG1-KO (L234A/L235A) / kappa; also called 6B8-IgG1KO-5 with IgK-66; 6B8CVH-05 / 6B8CVK-66) VH: QVQLVQSGAEVKKPGSSVKVSCKASGFTFTDQTIHWVRQAPGQGLEWMGYIYPRDDSPKYNENFKGKVTLTADKSTSTAYMELSSLRSEDTAVYYCAIPDRSGYAWFIYWGQGTLVTVSS VL: DIQMTQSPSSLSASVGDRVTITCKASRDVAIAVAWYQQKPGKVPKLLIYWASTRHTGVPSRFSGSGSRTDFTLTISSLQPEDVADYFCHQYSSYPFTFGSGTKLEIKR | < 0.001 | < 1e-06 | 517000 | – | 0.009 nM and 0.008 nM | – | – | – | < 0.001 | 537 | < 1e-06 | 2.99e+06 | 0.073 nM and 0.084 nM |
| Chimeric 6B8 (antibody, V domains shown) VH: QVQLQQSDAELVKPGTSVKTSCKISGNTFTDQTIHWMKQRPEQGLEWIGYIYPRDDSPKYNENFKGKATLTADKSSSTAYMQLNSLTSEDSAVYFCAIPDRSGYAWFIYWGQGTLVTVSS VL: DIVMTQSHKFLSTSVGDRVTITCKASRDVAIAVAWYQQKPGQSPKLLLFWASTRHTGVPDRFTGSGSRTDFTLTISNVQSEDLADYFCHQYSSYPFTFGSGTKLEIK | – | – | – | 0.026 nM and 0.037 nM and 0.057 nM | 0.005 nM and 0.002 nM and 0.006 nM and 0.003 nM | – | – | – | – | 523 | – | – | – |
| Mouse antibody 6B8 (antibody, V domains shown, Mouse monoclonal antibody from hybridoma; also called Mouse 6B8; 6B8Vk) VH: QVQLQQSDAELVKPGTSVKTSCKISGNTFTDQTIHWMKQRPEQGLEWIGYIYPRDDSPKYNENFKGKATLTADKSSSTAYMQLNSLTSEDSAVYFCAIPDRSGYAWFIYWGQGTLVTVSS VL: DIVMTQSHKFLSTSVGDRVTITCKASRDVAIAVAWYQQKPGQSPKLLLFWASTRHTGVPDRFTGSGSRTDFTLTISNVQSEDLADYFCHQYSSYPFTFGSGTKLEIK | 0.0245 | 1.38e-05 | 557000 | 0.013 nM | – | < 0.001 | < 1e-06 | – | – | – | – | – | – |
| 31H9 (antibody, V domains shown, Mouse monoclonal antibody from hybridoma; also called 31H9vk; 31H9vh) VH: EVQLQQSGPELVKPGASVKMSCKASGYTFTRYLMHWVKQKPGQGLEWIGYINPYNDGTNYNEKFKGKATLTSDKSSSTAYMELSSLTSEDSAVYYCSLNWDYAYWGQGTLVTVSA VL: DIVMTQSPATLSVTPGDRVSLSCRASQSISDYLHWYQQKSHESPRLLIKYASQSISGIPSRFSGSGSGSDFTLSINSVEPEDVGVYYCQNGHSFPYTFGGGTKLEIK | – | – | – | 0.96 nM | 2 nM | 0.0115 | 3.45e-06 | 299000 | – | – | – | – | – |
| Chimeric 18E5 (antibody, V domains shown) VH: EVQLQQSGPELVKPGAAVKMSCKASGYTFTRYLIHWVKQKPGQGLEWIGYINPYNDGTKYNEKFKGKATLTSDKSSSTAYMELSSLTSEDSAVYYCTSNWDLDYWGQGTTLTVSS VL: DIVMTQSPATLSVTPGDRVSLSCRASQSISDYLYWYQQKSHESPRLLIKFASQSISGIPSRFTGSGSGSDFTLSIDSVEPDDVGVFFCQNGHSFPFTFGGGTKLEIK | – | – | – | 0.031 nM | – | – | – | – | – | 511 | – | – | – |
